{
  "source": "paper PMC2174084",
  "biological_target": "rabbit skeletal muscle actin, polymerized (F-actin) (rabbit) (UniProt P68135)",
  "assay": "co-sedimentation",
  "data": [
    {"substance": "full-length Kelch (purified, recombinant; ORF1 cDNA) (natural protein)", "values": [
      {"measurement": "stoichiometry N (Kelch per actin (molar ratio))", "value": 0.25}
    ]}
  ]
}
